Data reported in publication PMC10194977.

Experiments:
[1] = molecular target: Recombinant human PERK (EIF2AK3, active catalytic subunit of PERK protein) (human)
[2] = molecular target: Recombinant human PERK (EIF2AK3, active catalytic subunit of PERK protein) (human); remark: listed apart in the source
[3] = molecular target: Recombinant human PERK (EIF2AK3, active catalytic subunit of PERK protein) (human); remark: listed apart in the source

EC50 of activation of PERK kinase activity (ATP consumption, ADP-Glo luminescence; 87 nM PERK, 0.26 μM SMAD3 as substrate, 50 μM ATP; RT, 2 h; three-fold serial dilution of calcineurin-B) [1]: 2720 nM | relative PERK kinase activity (% of basal activity; ADP-Glo, SMAD3 substrate) with 0.87 μM calcineurin-B at reaction times of 15, 30, 60 and 120 min, RT; highest value at 120 min [2]: 128% | % of PERK activity (relative to control; ADP-Glo, SMAD3 substrate) with 0.87 μM calcineurin-B, 1 h at 37 °C (no significant activation) [3]: 99.5% | % of PERK activity (relative to control; ADP-Glo, SMAD3 substrate) with 0.87 μM calcineurin-B, 1 h at RT [3]: 106%
Substance: full-length recombinant human calcineurin-B (from UniProt P63098 1-170) (natural protein)
